Assay results: patent US20190055316A1 (published 2019)

B1: Soluble human MSLN (other)
chain: EVEKTACPSGKKAREIDESLIFYKKWELEACVDAALLATQMDRVNAIPFTYEQLDVLKHKLDELYPQGYPESVIQHLGYLFLKMSPEDIRKWNVTSLETLKALLEVNKGHEMSPQAPRRPLPQVATLIDRFVKGRGQLDKDTLDTLTAFYPGYLCSLSPEELSSVPPSSIWAVRPQDLDTCDPRQLDVLYPKARLAFQNMNGSEYFVKIQSFLGGAPTEDLKALSQQNVSMDLATFMKLRTDAVLPLTVAEVQKLLGPHVEGLKAEERHRPVRDWILRQRQDDLDTLGLGLQGGIPNGYLVLDLSMQEALS
B2: Native hu MSLN (cells) (other)
chain: B1 chain

What was measured:
2.69 LC2 = assay: Biacore
151 [1] = assay: Biacore
158.3 [2] = assay: Biacore
151 [3] = assay: KinExA
158.3 [4] = assay: KinExA

Binder	Kd (2.69 LC2)	Kd 151 [1]	Kd (158.3 [2])	Kd 151 [3]	Kd (158.3 [4])
B1	228 pM	17400 pM	2400 pM		
B2				30 pM	12.2 pM
